Earlier results as cited in paper PMC6353226.

Key:
[1] = target: IGF1R pY1165 (Homo sapiens) (UniProt P08069)
[2] = target: IGF1R pY1161 (Homo sapiens) (UniProt P08069)

- Kd [1]: 900 nM
- Kd [2]: 900 nM
Substance: YES1 SH2 (from UniProt P07947)
